Experimental findings from the Human Domainome abundance scans (Beltran et al. 2025) are described below.

± gives the uncertainty stated by the source.

First the molecules themselves.
B1: Neutrophil cytosol factor 2, residues 456 to 514; numbered along this chain, P19878 (parent)
chain: LKKGSQVEALFSYEATQPEDLEFQEGDIILVLSKVNEEWLEGECKGKVGIFPKVFVEDC

The data set covers variants of B1. As to the kind of experiment: abundance fitness (aPCA) (normalised: wild type 0, dead -1); higher = more abundant; growth selection in yeast, the domain comes from the species named. The note with it: Homo sapiens.
Turning to LKKGSQVEALFSYEATQPEDLEFQEGDIILVYSKVNEEWLEGECKGKVGIFPKVFVEDC [L32Y], the abundance fitness was -0.249 ± 0.13.
Consider LKKGSQVEALFGYEATQPEDLEFQEGDIILVLSKVNEEWLEGECKGKVGIFPKVFVEDC [S12G], for which the abundance fitness was -0.377 ± 0.15.
To LKKGSQVEALFSYEATQPEDLEFQEGDIILVLSKVNEEWLEGECKGKVGIFSKVFVEDC [P52S] belongs -0.585 ± 0.13; to LKKGSQVEELFSYEATQPEDLEFQEGDIILVLSKVNEEWLEGECKGKVGIFPKVFVEDC [A9E], -0.361 ± 0.24.
Consider LKMGSQVEALFSYEATQPEDLEFQEGDIILVLSKVNEEWLEGECKGKVGIFPKVFVEDC [K3M], for which the abundance fitness was -0.005 ± 0.36.
To LKKGSQVEALFSYEATQPEDLEFQEGDIILVLSKVNEEWLEGEIKGKVGIFPKVFVEDC [C44I] belongs -0.705 ± 0.14; to LKKGSQVEALFSYEATQPEDDEFQEGDIILVLSKVNEEWLEGECKGKVGIFPKVFVEDC [L21D], -0.323 ± 0.12.
Turning to LKKGSQVEALFSYEATQPEDLEFQEGDIILVLSKVNEEWLEGECKDKVGIFPKVFVEDC [G46D], the abundance fitness is -0.703 ± 0.19.
With LKKGSQVEALFSYEATQPEDLEFQEGDIILVLSKVNEEWLEGECKGKVGIFPKGFVEDC [V54G], the abundance fitness is -0.209 ± 0.097.
To LKKGSQVEALFSYEATQWEDLEFQEGDIILVLSKVNEEWLEGECKGKVGIFPKVFVEDC [P18W] belongs -0.711 ± 0.24; to LKKGSQVEALFSYEATQPEDLAFQEGDIILVLSKVNEEWLEGECKGKVGIFPKVFVEDC [E22A], 0.103 ± 0.11; to LKKGSQVEALFSYEATQPEDLLFQEGDIILVLSKVNEEWLEGECKGKVGIFPKVFVEDC [E22L], -0.256 ± 0.13.
To LKKGSQVEALFSYEAKQPEDLEFQEGDIILVLSKVNEEWLEGECKGKVGIFPKVFVEDC [T16K] belongs 0.397 ± 0.46.
For LKKGSQVEALFSYEATQPEDLEFQEGDIILVLSKVNEEWLEGECKGKVGIFPKVFVEDG [C59G] the value was -0.64 ± 0.22; for LKKGSQVEALFSYEATQPEDLEFQEGDIILVLSKVNEEWLEGECKGKVGIFPKVFVEDI [C59I], 0.153 ± 0.15; for LKKGSQVEALFSYEATQPEDLEEQEGDIILVLSKVNEEWLEGECKGKVGIFPKVFVEDC [F23E], -0.023 ± 0.29.
Consider LKKGSQVEALFSYEATQPEDLEFQEGDIILVLSKVNEEWLEGECKGKFGIFPKVFVEDC [V48F], for which the abundance fitness was -0.505 ± 0.15.
For LKKGSQVEALFSYEATQPEDLEFQEGDIALVLSKVNEEWLEGECKGKVGIFPKVFVEDC [I29A] the value was -0.53 ± 0.15; for LKKGSQVEALFSYEATQPEDLEFTEGDIILVLSKVNEEWLEGECKGKVGIFPKVFVEDC [Q24T], -0.257 ± 0.14.
Turning to LKKGSQAEALFSYEATQPEDLEFQEGDIILVLSKVNEEWLEGECKGKVGIFPKVFVEDC [V7A], the abundance fitness is -0.662 ± 0.29.
For LKKGSQVEALFSYEATQPEDLEFQEGDIILVLSKVNEEWLEGECKGKVGPFPKVFVEDC [I50P] the value was 0.096 ± 0.24; for LKKGSQVEALFSYEATQPEDLEFQEGDIILVLSKVNEEWLEGECFGKVGIFPKVFVEDC [K45F], -0.669 ± 0.15.
For LKKGSQVEALFSYEATQPEDLEFQEGDIILVLSVVNEEWLEGECKGKVGIFPKVFVEDC [K34V] the value was 0.467 ± 0.071; for LKKGSQVEALFSYEATQPEDLEFQEGDIILVLSRVNEEWLEGECKGKVGIFPKVFVEDC [K34R], -0.47 ± 0.12; for LKKGSQVEALFSYEATLPEDLEFQEGDIILVLSKVNEEWLEGECKGKVGIFPKVFVEDC [Q17L], -0.266 ± 0.11.
Consider LKKGSQVEALFSYEATQPEDLEFQEGDIILVLSKVNEEWLEGECKGYVGIFPKVFVEDC [K47Y], for which the abundance fitness was -0.742 ± 0.14.
With LKKGSQVEALFSYEWTQPEDLEFQEGDIILVLSKVNEEWLEGECKGKVGIFPKVFVEDC [A15W], the abundance fitness was -0.48 ± 0.27.
To LKKGSQVEALFSYESTQPEDLEFQEGDIILVLSKVNEEWLEGECKGKVGIFPKVFVEDC [A15S] belongs 0.051 ± 0.089; to LKKGSQVEALFSYEATQPEDLEFQEGDIILVLSKVNEEWLEPECKGKVGIFPKVFVEDC [G42P], -0.375 ± 0.18; to LKKGSQVEALFSYEATQPEDLEFQEGDIILVLSKVNEEWLEMECKGKVGIFPKVFVEDC [G42M], -0.954 ± 0.31.
With LKKGSQVEALFSYEATQPEDLEFQEGDIILVLSKVKEEWLEGECKGKVGIFPKVFVEDC [N36K], the abundance fitness was found to be 0.093 ± 0.23.
For LKKGSQVEALFSYEATQPEDLEFQEGYIILVLSKVNEEWLEGECKGKVGIFPKVFVEDC [D27Y] the value was -0.613 ± 0.13; for LKKGSQVEALFSYLATQPEDLEFQEGDIILVLSKVNEEWLEGECKGKVGIFPKVFVEDC [E14L], -0.231 ± 0.14; for LKKGSQVEALFSYEATQPEDLEFQEGDIILVLSKVNEEWLEGECKGKVGIFPKVFVMDC [E57M], -0.464 ± 0.21.
For LKKGSQVEALFSYEATQPEDLEFQEGDIILVLSKVNEEWREGECKGKVGIFPKVFVEDC [L40R] the value was -0.217 ± 0.12.
